Measurements taken from PMC10843171.
pKd: −log10 of the molar value.

Legend:
human FcRn (human) = human FcRn (human) (UniProt P55899); experiment: not stated
[1] = biological target: cyno FcRn (cynomolgus monkey) (UniProt Q8SPV9); experiment: not stated
[2] = biological target: PF-07209960, anti-human PD-1–IL15 mutein fusion protein (human); experiment: SPR; Biacore T200; fusion protein captured via anti-human Fc on a CM4 chip, receptor injected as analyte; 37°C; 10 mM HEPES, 150 mM NaCl, 0.05% Tween-20, pH 7.4, 1 mg/mL BSA; steady-state 1:1 Langmuir fit

Chain of UniProt P55899 (P55899 whole entry, looked up, tested part not stated): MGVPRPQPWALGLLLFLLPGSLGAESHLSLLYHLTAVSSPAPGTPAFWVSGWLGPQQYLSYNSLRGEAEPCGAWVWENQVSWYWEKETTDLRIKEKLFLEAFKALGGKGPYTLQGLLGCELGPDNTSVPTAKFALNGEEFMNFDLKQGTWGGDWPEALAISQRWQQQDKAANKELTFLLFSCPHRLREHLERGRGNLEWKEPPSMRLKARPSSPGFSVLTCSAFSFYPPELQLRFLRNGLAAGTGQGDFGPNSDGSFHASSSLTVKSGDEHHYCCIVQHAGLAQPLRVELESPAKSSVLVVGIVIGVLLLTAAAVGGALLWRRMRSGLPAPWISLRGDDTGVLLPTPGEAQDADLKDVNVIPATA
Chain of UniProt Q8SPV9 (Q8SPV9 whole entry, looked up, the tested form may be a part): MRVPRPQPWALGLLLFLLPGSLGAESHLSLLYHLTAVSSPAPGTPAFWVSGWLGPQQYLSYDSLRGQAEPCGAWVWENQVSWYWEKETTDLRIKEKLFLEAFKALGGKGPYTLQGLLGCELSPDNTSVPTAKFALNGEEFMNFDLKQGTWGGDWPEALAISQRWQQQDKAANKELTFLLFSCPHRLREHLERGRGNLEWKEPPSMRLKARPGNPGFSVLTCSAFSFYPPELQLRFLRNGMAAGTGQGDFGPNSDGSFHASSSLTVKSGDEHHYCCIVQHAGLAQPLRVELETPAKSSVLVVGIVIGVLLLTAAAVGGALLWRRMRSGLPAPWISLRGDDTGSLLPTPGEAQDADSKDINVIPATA

Substance | pKd (human FcRn (human)) | pKd [1] | pKd [2]
PF-07209960, anti-human PD-1–IL15 mutein fusion protein | 5.98 | 6.37 | –
human IL-2Rβ (from UniProt P14784 27-551) (receptor) | – | – | 5.40
monkey IL-2Rβ (from UniProt Q38J85 27-551) (receptor) | – | – | 5.62
